# Measured values published in patent US20200057058A1 (MIT, published 2020).
# B1: rcSso7d.SA monolayer (designed binder)
# chain: MGSIHHHHHHSSGLVPRGSHMCATVKFTYQGEEKQVDISKIKIVARDGQYIDFKYDEGGGAYGYGWVSEKDAPKELLQMLEKQ
# modifications: EDC/NHS-activated protein coupled to an amine-functionalized silicon wafer
# notes: also called monomeric rcSso7d.SA; surface-immobilized rcSso7d.SA
# How the values were obtained:
# [1] = biological target: T1, streptavidin (UniProt P22629 37-163, limits assumed); experiment: sandwich assay: SA in 50% urine, biotin-HRP/TMB detection
# T1 construct: It was used without a stated label in the sandwich assays; also called SA
# T1 sequence (P22629 37-163 limits assumed): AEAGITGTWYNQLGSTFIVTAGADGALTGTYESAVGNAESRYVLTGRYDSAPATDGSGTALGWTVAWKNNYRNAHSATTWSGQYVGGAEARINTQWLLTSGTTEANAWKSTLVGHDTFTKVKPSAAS
# [2] = biological target: T1, streptavidin; experiment: fluorescent binding curve, labeled SA in 50% urine, 4 h; quadratic fit
# [3] = biological target: T1, streptavidin; experiment: sandwich assay: SA in 50% blood serum, biotin-HRP/TMB detection
# [4] = biological target: monomeric streptavidin variant mSA2; experiment: fluorescent binding curve, labeled mSA2 in 50% urine, 4 h; quadratic fit
# [5] = biological target: monomeric streptavidin variant mSA2; experiment: fluorescent binding curves, labeled mSA2 in 50% urine or 50% blood serum, 4 h
# [6] = biological target: T1, streptavidin; experiment: fluorescent binding curve, labeled SA in PBS, 4 h exposure; quadratic fit
# [7] = biological target: monomeric streptavidin variant mSA2; experiment: fluorescent binding curve, labeled mSA2 in PBS, 4 h exposure; quadratic fit
# Procedure: (§1) The binding function of rcSso7d.SA oligomer-PNIPAM thin films was measured using fluorescently-labeled monomeric streptavidin (mSA2) and fluorescently-labeled streptavidin (SA). Details for the expression, purification, and fluorescent labeling of mSA2 are provided below. Samples were prepared by serial dilution of SA or mSA2 in PBS (pH 7.4), human urine (diluted to 50% v/v in PBS, pH 7.4), or blood serum (obtained as the supernatant by centrifuging whole blood at 1500×g for 10 minutes, then diluted to 50% v/v in PBS, pH 7.4). 0.5 μL drops of solutions containing serially diluted fluorescent mSA2 and fluorescent SA samples in PBS (pH 7.4) were gently applied to the surface of each bioconjugate thin film. Films were incubated in a sealed chamber saturated with water vapor at room temperature to prevent to prevent drying of the applied fluorescent samples. […] Fluorescence microscopy images were acquired at 4× magnification using a Cy5 filter set and exposure time of 5000 ms on an Olympus IX-81 inverted fluorescence microscope with an AxioCam HRC CCD camera. Fluorescent intensity was calculated using ImageJ software⁶⁷ by determining the average fluorescent signal in a rectangular area of the fluorescent image free of defects and occupying no less than half of the full sample application area.
# (§2) To evaluate how the apparent size-based diffusion properties translated to biosensing capabilities, binding curves were measured using SA and mSA2 solutions in buffer. Binding curves were fit with a quadratic model that is a function of three parameters: the average MFI per binding event a, the total concentration of binding sites [P]T, and the apparent dissociation constant K_{d,app} describing the binding equilibrium between analyte and binding sites within the thin film.
# [8] = biological target: monomeric streptavidin variant mSA2; experiment: fluorescent binding assay, labeled mSA2 in PBS on the monolayer, 4 h exposure
# [9] = biological target: T1, streptavidin; experiment: apparent Kd (Kd,app); fluorescent binding curve, labeled SA in 50% urine, 4 h; quadratic fit
# [10] = biological target: T1, streptavidin; experiment: apparent Kd (Kd,app); fluorescent binding curve, labeled SA in PBS, 4 h exposure; quadratic fit
# [11] = biological target: monomeric streptavidin variant mSA2; experiment: apparent Kd (Kd,app); fluorescent binding curve, labeled mSA2 in PBS, 4 h exposure; quadratic fit
# Procedure: as §1, §2
# [12] = biological target: monomeric streptavidin variant mSA2; experiment: apparent Kd (Kd,app); fluorescent binding curve, labeled mSA2 in 50% blood serum, 4 h; quadratic fit
binder,measurement,setting,value
B1,LOD,[1],32 nM
same,[P]T (total concentration of binding sites),[2],0.29 nM
same,LOD,[3],40 nM
same,[P]T (total concentration of binding sites),[4],0.4 nM
same,sensitivity in the fluids relative to buffer,[5],≤ 10 fold
same,[P]T (total concentration of binding sites),[6],0.36 nM
same,[P]T (total concentration of binding sites),[7],0.35 nM
same,EC50 (read off the curve),[8],~3 µM
same,Kd,[9],47 µM
same,Kd,[10],8 µM
same,Kd,[11],3 µM
same,Kd,[12],62 µM
